This note sets out measurements from article PMC3598421.

The data set deals with T1, BdSWN5 (Brachypodium distachyon, UniProt I2E2W5 1-346).
T1 sequence: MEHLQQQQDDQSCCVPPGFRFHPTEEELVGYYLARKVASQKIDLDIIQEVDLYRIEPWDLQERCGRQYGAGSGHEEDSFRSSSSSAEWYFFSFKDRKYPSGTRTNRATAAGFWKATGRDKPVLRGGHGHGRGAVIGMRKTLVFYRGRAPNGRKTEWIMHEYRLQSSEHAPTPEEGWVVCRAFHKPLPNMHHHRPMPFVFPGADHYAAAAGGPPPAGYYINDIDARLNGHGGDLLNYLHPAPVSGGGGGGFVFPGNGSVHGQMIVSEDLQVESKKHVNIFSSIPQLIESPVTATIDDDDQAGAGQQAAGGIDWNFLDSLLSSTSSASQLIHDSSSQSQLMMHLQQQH
Nature of the data set: competition.

B1: SNBE1 M1 motif (dsDNA)
DNA 1: AGCATACATTTATAGGAAGCGTATTCTCGCAGTCA
DNA 2: TGACTGCGAGAATACGCTTCCTATAAATGTATGCT
B1: the binding result is reported as “no binding”.

B2: SNBE2 M2 motif (dsDNA)
DNA 1: TTTTACATTGCATATGCTTTGTATCAATTGCCCAA
DNA 2: TTGGGCAATTGATACAAAGCATATGCAATGTAAAA
For B2, the binding result is on record as “no binding”.
